Reference: publication PMC5006282

Experiments:
Test in all cases: pull-down MS
Details in all cases: 5' biotin on sense strand; DNA immobilised on streptavidin beads in 20 mM Tris-HCl pH 8.0, 200 mM NaCl, 0.5 mM EDTA, 0.03% NP40; protein binding buffer and temperature not in the …
[1] = molecular target: NFKB2 (NF-kappa B p100/p52) (Homo sapiens (Raji)) (UniProt Q00653)
[2] = molecular target: Helios (Homo sapiens (Raji)) (UniProt Q9UKS7)
[3] = molecular target: HCF-1 (Homo sapiens (Raji, Molt4)) (UniProt P51610)
[4] = molecular target: Ikaros (Homo sapiens (Raji, Molt4 nuclear extract)) (UniProt Q13422)
[5] = molecular target: Aiolos (Homo sapiens (Raji)) (UniProt Q9UKT9)
Sequence of UniProt Q9UKT9 (Q9UKT9 whole entry): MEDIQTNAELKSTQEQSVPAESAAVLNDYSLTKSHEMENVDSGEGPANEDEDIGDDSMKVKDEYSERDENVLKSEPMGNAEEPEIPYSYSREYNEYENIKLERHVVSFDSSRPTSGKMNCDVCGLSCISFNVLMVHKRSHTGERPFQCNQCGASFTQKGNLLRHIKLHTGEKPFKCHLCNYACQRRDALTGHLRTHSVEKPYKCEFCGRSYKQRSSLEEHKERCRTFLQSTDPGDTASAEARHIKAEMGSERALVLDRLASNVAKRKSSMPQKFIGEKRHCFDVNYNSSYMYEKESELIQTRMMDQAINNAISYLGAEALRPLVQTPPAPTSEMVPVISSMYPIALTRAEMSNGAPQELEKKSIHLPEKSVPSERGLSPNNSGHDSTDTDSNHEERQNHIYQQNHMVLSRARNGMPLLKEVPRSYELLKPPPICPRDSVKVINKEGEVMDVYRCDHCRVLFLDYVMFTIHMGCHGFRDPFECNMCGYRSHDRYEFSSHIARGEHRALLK

Sequence of UniProt P51610 (P51610 whole entry): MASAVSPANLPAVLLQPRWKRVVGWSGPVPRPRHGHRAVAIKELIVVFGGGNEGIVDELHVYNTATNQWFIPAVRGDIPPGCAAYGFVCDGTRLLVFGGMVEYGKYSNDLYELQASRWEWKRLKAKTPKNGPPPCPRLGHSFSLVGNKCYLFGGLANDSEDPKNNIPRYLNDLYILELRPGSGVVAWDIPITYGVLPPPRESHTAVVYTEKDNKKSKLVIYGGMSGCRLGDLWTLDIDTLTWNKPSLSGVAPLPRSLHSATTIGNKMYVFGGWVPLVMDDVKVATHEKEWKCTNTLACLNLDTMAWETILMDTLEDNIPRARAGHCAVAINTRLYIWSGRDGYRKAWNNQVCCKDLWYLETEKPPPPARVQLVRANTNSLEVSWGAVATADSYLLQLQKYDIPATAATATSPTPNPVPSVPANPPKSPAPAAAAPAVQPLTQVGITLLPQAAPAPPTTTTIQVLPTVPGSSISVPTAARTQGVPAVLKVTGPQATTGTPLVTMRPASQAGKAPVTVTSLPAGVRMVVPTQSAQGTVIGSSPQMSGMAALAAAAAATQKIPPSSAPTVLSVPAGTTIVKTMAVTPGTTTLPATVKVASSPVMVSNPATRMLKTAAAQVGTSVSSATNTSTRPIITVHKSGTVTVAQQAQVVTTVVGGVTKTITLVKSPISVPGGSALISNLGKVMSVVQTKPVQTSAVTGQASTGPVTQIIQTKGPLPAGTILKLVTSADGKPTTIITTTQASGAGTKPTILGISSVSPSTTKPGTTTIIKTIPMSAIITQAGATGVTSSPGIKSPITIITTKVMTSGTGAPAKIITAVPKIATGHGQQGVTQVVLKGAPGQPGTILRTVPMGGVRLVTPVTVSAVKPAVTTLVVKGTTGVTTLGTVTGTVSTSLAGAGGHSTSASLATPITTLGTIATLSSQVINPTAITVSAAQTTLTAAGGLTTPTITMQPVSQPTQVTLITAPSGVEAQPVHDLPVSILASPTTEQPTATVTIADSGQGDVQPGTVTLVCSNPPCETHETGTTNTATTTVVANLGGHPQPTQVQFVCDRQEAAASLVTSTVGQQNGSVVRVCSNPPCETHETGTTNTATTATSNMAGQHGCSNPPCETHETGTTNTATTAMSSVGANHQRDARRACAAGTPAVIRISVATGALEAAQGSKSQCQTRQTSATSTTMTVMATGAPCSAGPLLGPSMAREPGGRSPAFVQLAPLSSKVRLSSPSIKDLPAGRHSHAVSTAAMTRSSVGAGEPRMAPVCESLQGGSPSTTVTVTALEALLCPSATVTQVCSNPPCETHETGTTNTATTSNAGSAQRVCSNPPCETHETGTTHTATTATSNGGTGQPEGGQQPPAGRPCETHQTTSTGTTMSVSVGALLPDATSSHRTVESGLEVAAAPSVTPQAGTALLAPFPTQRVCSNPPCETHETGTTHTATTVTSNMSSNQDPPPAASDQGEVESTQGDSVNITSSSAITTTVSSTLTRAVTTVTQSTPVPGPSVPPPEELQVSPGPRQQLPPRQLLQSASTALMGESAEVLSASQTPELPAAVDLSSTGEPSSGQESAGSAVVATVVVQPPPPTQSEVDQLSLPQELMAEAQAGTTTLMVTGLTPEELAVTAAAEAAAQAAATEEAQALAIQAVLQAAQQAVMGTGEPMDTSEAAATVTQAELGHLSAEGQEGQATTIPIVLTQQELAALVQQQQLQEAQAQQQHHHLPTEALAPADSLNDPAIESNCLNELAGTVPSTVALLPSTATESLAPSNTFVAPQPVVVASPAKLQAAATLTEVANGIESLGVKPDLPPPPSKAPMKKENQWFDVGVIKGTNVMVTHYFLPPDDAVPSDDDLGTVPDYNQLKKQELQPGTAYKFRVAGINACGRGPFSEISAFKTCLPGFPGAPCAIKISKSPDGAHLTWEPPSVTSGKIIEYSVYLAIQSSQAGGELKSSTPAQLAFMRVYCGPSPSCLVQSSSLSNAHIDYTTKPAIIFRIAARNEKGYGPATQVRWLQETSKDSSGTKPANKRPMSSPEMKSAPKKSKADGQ
Sequence of UniProt Q9UKS7 (Q9UKS7 whole entry): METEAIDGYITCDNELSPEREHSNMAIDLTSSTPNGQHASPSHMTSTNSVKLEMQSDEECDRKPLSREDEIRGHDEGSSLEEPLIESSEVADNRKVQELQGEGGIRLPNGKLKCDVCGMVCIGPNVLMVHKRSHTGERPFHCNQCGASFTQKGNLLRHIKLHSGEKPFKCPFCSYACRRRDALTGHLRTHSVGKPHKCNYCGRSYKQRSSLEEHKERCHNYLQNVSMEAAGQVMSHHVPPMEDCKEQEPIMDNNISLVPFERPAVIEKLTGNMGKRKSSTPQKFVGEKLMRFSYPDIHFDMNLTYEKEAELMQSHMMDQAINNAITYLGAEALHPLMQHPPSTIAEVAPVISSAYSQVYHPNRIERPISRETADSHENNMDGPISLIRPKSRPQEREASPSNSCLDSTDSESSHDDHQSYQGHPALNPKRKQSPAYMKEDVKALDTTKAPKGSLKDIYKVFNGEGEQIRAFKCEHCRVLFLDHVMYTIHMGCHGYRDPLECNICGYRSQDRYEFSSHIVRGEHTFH
Sequence of UniProt Q00653 (Q00653 whole entry): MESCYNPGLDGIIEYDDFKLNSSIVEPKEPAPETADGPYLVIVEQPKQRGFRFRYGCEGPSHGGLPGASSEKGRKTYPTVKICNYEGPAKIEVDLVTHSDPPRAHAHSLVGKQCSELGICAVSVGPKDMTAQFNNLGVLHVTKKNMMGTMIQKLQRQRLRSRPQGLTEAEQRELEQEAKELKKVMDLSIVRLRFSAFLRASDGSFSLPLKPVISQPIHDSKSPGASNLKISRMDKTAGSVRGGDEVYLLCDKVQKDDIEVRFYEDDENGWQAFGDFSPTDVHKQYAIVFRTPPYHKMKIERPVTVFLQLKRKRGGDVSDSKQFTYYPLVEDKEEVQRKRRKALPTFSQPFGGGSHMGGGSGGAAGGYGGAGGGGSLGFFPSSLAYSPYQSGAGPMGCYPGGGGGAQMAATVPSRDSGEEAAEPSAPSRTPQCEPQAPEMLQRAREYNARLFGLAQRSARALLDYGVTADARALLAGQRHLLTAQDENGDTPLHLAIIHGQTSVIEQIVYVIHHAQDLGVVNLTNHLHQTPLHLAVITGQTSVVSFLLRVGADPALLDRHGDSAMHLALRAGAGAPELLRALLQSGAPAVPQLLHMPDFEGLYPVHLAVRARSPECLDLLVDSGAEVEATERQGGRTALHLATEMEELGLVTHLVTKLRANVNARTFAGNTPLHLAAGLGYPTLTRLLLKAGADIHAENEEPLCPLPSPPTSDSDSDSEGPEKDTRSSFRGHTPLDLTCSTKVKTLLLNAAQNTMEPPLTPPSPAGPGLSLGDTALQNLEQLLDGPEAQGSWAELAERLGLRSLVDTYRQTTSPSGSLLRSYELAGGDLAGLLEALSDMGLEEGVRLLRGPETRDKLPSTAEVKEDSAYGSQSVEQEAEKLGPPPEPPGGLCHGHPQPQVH
Sequence of UniProt Q13422 (Q13422 whole entry): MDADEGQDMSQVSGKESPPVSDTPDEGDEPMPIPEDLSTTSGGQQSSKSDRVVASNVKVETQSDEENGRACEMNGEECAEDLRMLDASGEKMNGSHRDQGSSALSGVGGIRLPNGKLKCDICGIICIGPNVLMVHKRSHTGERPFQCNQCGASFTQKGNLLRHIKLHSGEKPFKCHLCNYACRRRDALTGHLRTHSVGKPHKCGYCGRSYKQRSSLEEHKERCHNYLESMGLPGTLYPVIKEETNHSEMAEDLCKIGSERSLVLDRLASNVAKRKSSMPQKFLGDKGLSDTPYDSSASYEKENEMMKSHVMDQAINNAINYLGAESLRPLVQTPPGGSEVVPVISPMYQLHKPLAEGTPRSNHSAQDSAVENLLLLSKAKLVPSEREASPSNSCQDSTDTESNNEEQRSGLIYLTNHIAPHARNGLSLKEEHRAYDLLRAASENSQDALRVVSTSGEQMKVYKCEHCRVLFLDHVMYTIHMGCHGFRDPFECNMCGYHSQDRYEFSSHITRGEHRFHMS

CAAAACTGCAGGCAACTAGAACTACATTTCCCGGCGTGATTTGCTGCGGAACGAACTACATCTCCCGGCAGGCTGCG (double strand) [Tandem M4 WT]
binding signal (SILAC ratio WT/MT) [1]: 31.8 | binding signal (SILAC ratio WT/MT) [2]: > 100 | binding signal (SILAC ratio WT/MT) [3]: 19 | binding signal (SILAC ratio WT/MT) [4]: > 100 | binding signal (SILAC ratio WT/MT) [5]: > 100
